To fix the notation:
B1: Storkhead-box protein 2, residues 64 to 141; numbered along this chain, Q9P2F5 (parent)
chain: SPISQSQFIPLGEILCLAISAMNSARKPVTQEALMEHLTTCFPGVPTPSQEILRHTLNTLVRERKIYPTPDGYFIVTP

± gives the uncertainty stated by the source.

Variants of B1 are the subject of this series. Nature of the series: abundance fitness (aPCA) (normalised: wild type 0, dead -1); higher = more abundant; growth selection in yeast, the domain comes from the species named. Particulars: Homo sapiens.
As for SPISQSQFIPLGEILCLATSAMNSARKPVTQEALMEHLTTCFPGVPTPSQEILRHTLNTLVRERKIYPTPDGYFIVTP, the abundance fitness is -0.224 ± 0.06.
As for SPISQSQFIPLGEILCLAQSAMNSARKPVTQEALMEHLTTCFPGVPTPSQEILRHTLNTLVRERKIYPTPDGYFIVTP, the abundance fitness is -1.15 ± 0.21.
The figure for SPISQSQFIPLGEILCLAWSAMNSARKPVTQEALMEHLTTCFPGVPTPSQEILRHTLNTLVRERKIYPTPDGYFIVTP is -0.825 ± 0.06; for SPISQSQFIPLGEILCLAVSAMNSARKPVTQEALMEHLTTCFPGVPTPSQEILRHTLNTLVRERKIYPTPDGYFIVTP it is -0.154 ± 0.051; for SPISQSQFIPLGEILCLAYSAMNSARKPVTQEALMEHLTTCFPGVPTPSQEILRHTLNTLVRERKIYPTPDGYFIVTP it is -1.26 ± 0.33.
The figure for SPISQSQFIPLGEILCLASSAMNSARKPVTQEALMEHLTTCFPGVPTPSQEILRHTLNTLVRERKIYPTPDGYFIVTP is -0.823 ± 0.062.
Take SPISQSQFIPLGEILCLALSAMNSARKPVTQEALMEHLTTCFPGVPTPSQEILRHTLNTLVRERKIYPTPDGYFIVTP: the abundance fitness was -0.23 ± 0.047.
Next, SPISQSQFIPLGEILCLARSAMNSARKPVTQEALMEHLTTCFPGVPTPSQEILRHTLNTLVRERKIYPTPDGYFIVTP: -1.01 ± 0.088; SPISQSQFIPLGEILCLAPSAMNSARKPVTQEALMEHLTTCFPGVPTPSQEILRHTLNTLVRERKIYPTPDGYFIVTP: -0.948 ± 0.12.
Next, SPISQSQFIPLGEILCLAISANNSARKPVTQEALMEHLTTCFPGVPTPSQEILRHTLNTLVRERKIYPTPDGYFIVTP: -0.334 ± 0.12.
The figure for SPISQSQFIPLGEILCLAISAENSARKPVTQEALMEHLTTCFPGVPTPSQEILRHTLNTLVRERKIYPTPDGYFIVTP is -0.719 ± 0.25.
As to SPISQSQFIPLGEILCLAISASNSARKPVTQEALMEHLTTCFPGVPTPSQEILRHTLNTLVRERKIYPTPDGYFIVTP, the abundance fitness is -0.306 ± 0.04.
Next, SPISQSQFIPLGEILCLAISAVNSARKPVTQEALMEHLTTCFPGVPTPSQEILRHTLNTLVRERKIYPTPDGYFIVTP: -0.354 ± 0.044.
Next, SPISQSQFIPLGEILCLAISADNSARKPVTQEALMEHLTTCFPGVPTPSQEILRHTLNTLVRERKIYPTPDGYFIVTP: -0.515 ± 0.29; SPISQSQFIPLGEILCLAISALNSARKPVTQEALMEHLTTCFPGVPTPSQEILRHTLNTLVRERKIYPTPDGYFIVTP: 0.015 ± 0.036; SPISQSQFIPLGEILCLAISAANSARKPVTQEALMEHLTTCFPGVPTPSQEILRHTLNTLVRERKIYPTPDGYFIVTP: -0.234 ± 0.074.
The figure for SPISQSQFIPLGEILCLAISAINSARKPVTQEALMEHLTTCFPGVPTPSQEILRHTLNTLVRERKIYPTPDGYFIVTP is -0.128 ± 0.097.
Take SPISQSQFIPLGEILCLAISAKNSARKPVTQEALMEHLTTCFPGVPTPSQEILRHTLNTLVRERKIYPTPDGYFIVTP: the abundance fitness was -0.403 ± 0.064.
The figure for SPISQSQFIPLGEILCLAISAQNSARKPVTQEALMEHLTTCFPGVPTPSQEILRHTLNTLVRERKIYPTPDGYFIVTP is -0.226 ± 0.066; for SPISQSQFIPLGEILCLAISAPNSARKPVTQEALMEHLTTCFPGVPTPSQEILRHTLNTLVRERKIYPTPDGYFIVTP it is -0.739 ± 0.06.
Next, SPISQSQFIPLGEILCLAISARNSARKPVTQEALMEHLTTCFPGVPTPSQEILRHTLNTLVRERKIYPTPDGYFIVTP: -0.205 ± 0.043; SPISQSQFIPLGEILCLAISAFNSARKPVTQEALMEHLTTCFPGVPTPSQEILRHTLNTLVRERKIYPTPDGYFIVTP: -0.201 ± 0.075; SPISQSQFIPLGEILCLAISAWNSARKPVTQEALMEHLTTCFPGVPTPSQEILRHTLNTLVRERKIYPTPDGYFIVTP: -0.336 ± 0.05.
Next, SPISQSQFIPLGEILCLAISACNSARKPVTQEALMEHLTTCFPGVPTPSQEILRHTLNTLVRERKIYPTPDGYFIVTP: -0.114 ± 0.08; SPISQSQFIPLGEILCLAISAYNSARKPVTQEALMEHLTTCFPGVPTPSQEILRHTLNTLVRERKIYPTPDGYFIVTP: -0.243 ± 0.13.
SPISQSQFIPLGEILCLAISATNSARKPVTQEALMEHLTTCFPGVPTPSQEILRHTLNTLVRERKIYPTPDGYFIVTP: the abundance fitness is -0.616 ± 0.067.
Next, SPISQSQFIPLGEILCLAISAGNSARKPVTQEALMEHLTTCFPGVPTPSQEILRHTLNTLVRERKIYPTPDGYFIVTP: -0.257 ± 0.036; SPISQSQFIPLGEILCLAISAHNSARKPVTQEALMEHLTTCFPGVPTPSQEILRHTLNTLVRERKIYPTPDGYFIVTP: -0.226 ± 0.078; SPISQSQFIPLGEILCLAISRMNSARKPVTQEALMEHLTTCFPGVPTPSQEILRHTLNTLVRERKIYPTPDGYFIVTP: -0.019 ± 0.051.
The figure for SPISQSQFIPLGEILCLAISHMNSARKPVTQEALMEHLTTCFPGVPTPSQEILRHTLNTLVRERKIYPTPDGYFIVTP is -0.181 ± 0.17; for SPISQSQFIPLGEILCLAISYMNSARKPVTQEALMEHLTTCFPGVPTPSQEILRHTLNTLVRERKIYPTPDGYFIVTP it is 0.056 ± 0.097.
Next, SPISQSQFIPLGEILCLAISTMNSARKPVTQEALMEHLTTCFPGVPTPSQEILRHTLNTLVRERKIYPTPDGYFIVTP: -0.086 ± 0.089; SPISQSQFIPLGEILCLAISFMNSARKPVTQEALMEHLTTCFPGVPTPSQEILRHTLNTLVRERKIYPTPDGYFIVTP: -0.212 ± 0.091; SPISQSQFIPLGEILCLAISWMNSARKPVTQEALMEHLTTCFPGVPTPSQEILRHTLNTLVRERKIYPTPDGYFIVTP: -0.244 ± 0.091.
Turning to SPISQSQFIPLGEILCLAISSMNSARKPVTQEALMEHLTTCFPGVPTPSQEILRHTLNTLVRERKIYPTPDGYFIVTP, the abundance fitness turned out to be 0.062 ± 0.052.
Next, SPISQSQFIPLGEILCLAISPMNSARKPVTQEALMEHLTTCFPGVPTPSQEILRHTLNTLVRERKIYPTPDGYFIVTP: -0.774 ± 0.072.
The figure for SPISQSQFIPLGEILCLAISNMNSARKPVTQEALMEHLTTCFPGVPTPSQEILRHTLNTLVRERKIYPTPDGYFIVTP is 0.235 ± 0.16; for SPISQSQFIPLGEILCLAISGMNSARKPVTQEALMEHLTTCFPGVPTPSQEILRHTLNTLVRERKIYPTPDGYFIVTP it is -0.063 ± 0.047; for SPISQSQFIPLGEILCLAISQMNSARKPVTQEALMEHLTTCFPGVPTPSQEILRHTLNTLVRERKIYPTPDGYFIVTP it is 0.002 ± 0.073.
Next, SPISQSQFIPLGEILCLAISCMNSARKPVTQEALMEHLTTCFPGVPTPSQEILRHTLNTLVRERKIYPTPDGYFIVTP: -0.137 ± 0.07; SPISQSQFIPLGEILCLAISIMNSARKPVTQEALMEHLTTCFPGVPTPSQEILRHTLNTLVRERKIYPTPDGYFIVTP: -0.24 ± 0.18; SPISQSQFIPLGEILCLAISKMNSARKPVTQEALMEHLTTCFPGVPTPSQEILRHTLNTLVRERKIYPTPDGYFIVTP: 0.051 ± 0.046.
Regarding SPISQSQFIPLGEILCLAISMMNSARKPVTQEALMEHLTTCFPGVPTPSQEILRHTLNTLVRERKIYPTPDGYFIVTP, the abundance fitness was -0.235 ± 0.079.
Next, SPISQSQFIPLGEILCLAISLMNSARKPVTQEALMEHLTTCFPGVPTPSQEILRHTLNTLVRERKIYPTPDGYFIVTP: -0.305 ± 0.051; SPISQSQFIPLGEILCLAISDMNSARKPVTQEALMEHLTTCFPGVPTPSQEILRHTLNTLVRERKIYPTPDGYFIVTP: 0.002 ± 0.079; SPISQSQFIPLGEILCLAISVMNSARKPVTQEALMEHLTTCFPGVPTPSQEILRHTLNTLVRERKIYPTPDGYFIVTP: -0.167 ± 0.048.
In the case of SPISQSQFIPLGEILCLAIKAMNSARKPVTQEALMEHLTTCFPGVPTPSQEILRHTLNTLVRERKIYPTPDGYFIVTP, the abundance fitness worked out at 0.018 ± 0.075.
The figure for SPISQSQFIPLGEILCLAIEAMNSARKPVTQEALMEHLTTCFPGVPTPSQEILRHTLNTLVRERKIYPTPDGYFIVTP is -0.022 ± 0.069; for SPISQSQFIPLGEILCLAIMAMNSARKPVTQEALMEHLTTCFPGVPTPSQEILRHTLNTLVRERKIYPTPDGYFIVTP it is -0.115 ± 0.067.
Turning to SPISQSQFIPLGEILCLAITAMNSARKPVTQEALMEHLTTCFPGVPTPSQEILRHTLNTLVRERKIYPTPDGYFIVTP, the abundance fitness is -0.006 ± 0.06.
SPISQSQFIPLGEILCLAIIAMNSARKPVTQEALMEHLTTCFPGVPTPSQEILRHTLNTLVRERKIYPTPDGYFIVTP: the abundance fitness is -0.359 ± 0.099.
The figure for SPISQSQFIPLGEILCLAIWAMNSARKPVTQEALMEHLTTCFPGVPTPSQEILRHTLNTLVRERKIYPTPDGYFIVTP is -0.419 ± 0.053.
Regarding SPISQSQFIPLGEILCLAIQAMNSARKPVTQEALMEHLTTCFPGVPTPSQEILRHTLNTLVRERKIYPTPDGYFIVTP, the abundance fitness stood at 0.019 ± 0.087.
The figure for SPISQSQFIPLGEILCLAIVAMNSARKPVTQEALMEHLTTCFPGVPTPSQEILRHTLNTLVRERKIYPTPDGYFIVTP is -0.171 ± 0.044; for SPISQSQFIPLGEILCLAIRAMNSARKPVTQEALMEHLTTCFPGVPTPSQEILRHTLNTLVRERKIYPTPDGYFIVTP it is -0.025 ± 0.04; for SPISQSQFIPLGEILCLAIGAMNSARKPVTQEALMEHLTTCFPGVPTPSQEILRHTLNTLVRERKIYPTPDGYFIVTP it is -0.039 ± 0.037.
Next, SPISQSQFIPLGEILCLAIYAMNSARKPVTQEALMEHLTTCFPGVPTPSQEILRHTLNTLVRERKIYPTPDGYFIVTP: -0.181 ± 0.096; SPISQSQFIPLGEILCLAIDAMNSARKPVTQEALMEHLTTCFPGVPTPSQEILRHTLNTLVRERKIYPTPDGYFIVTP: -0.116 ± 0.17; SPISQSQFIPLGEILCLAILAMNSARKPVTQEALMEHLTTCFPGVPTPSQEILRHTLNTLVRERKIYPTPDGYFIVTP: -0.172 ± 0.024.
The figure for SPISQSQFIPLGEILCLAIPAMNSARKPVTQEALMEHLTTCFPGVPTPSQEILRHTLNTLVRERKIYPTPDGYFIVTP is -0.405 ± 0.074; for SPISQSQFIPLGEILCLAIHAMNSARKPVTQEALMEHLTTCFPGVPTPSQEILRHTLNTLVRERKIYPTPDGYFIVTP it is -0.219 ± 0.12.
In the case of SPISQSQFIPLGEILCLAIAAMNSARKPVTQEALMEHLTTCFPGVPTPSQEILRHTLNTLVRERKIYPTPDGYFIVTP, the abundance fitness is -0.104 ± 0.039.
The figure for SPISQSQFIPLGEILCLAINAMNSARKPVTQEALMEHLTTCFPGVPTPSQEILRHTLNTLVRERKIYPTPDGYFIVTP is 0.076 ± 0.16; for SPISQSQFIPLGEILCLAISAMCSARKPVTQEALMEHLTTCFPGVPTPSQEILRHTLNTLVRERKIYPTPDGYFIVTP it is -0.226 ± 0.076.
For the variant SPISQSQFIPLGEILCLAISAMASARKPVTQEALMEHLTTCFPGVPTPSQEILRHTLNTLVRERKIYPTPDGYFIVTP, the abundance fitness was -0.156 ± 0.052.
Next, SPISQSQFIPLGEILCLAISAMGSARKPVTQEALMEHLTTCFPGVPTPSQEILRHTLNTLVRERKIYPTPDGYFIVTP: -0.126 ± 0.033; SPISQSQFIPLGEILCLAISAMHSARKPVTQEALMEHLTTCFPGVPTPSQEILRHTLNTLVRERKIYPTPDGYFIVTP: -0.111 ± 0.079.
The figure for SPISQSQFIPLGEILCLAISAMDSARKPVTQEALMEHLTTCFPGVPTPSQEILRHTLNTLVRERKIYPTPDGYFIVTP is -0.061 ± 0.083; for SPISQSQFIPLGEILCLAISAMFSARKPVTQEALMEHLTTCFPGVPTPSQEILRHTLNTLVRERKIYPTPDGYFIVTP it is -0.535 ± 0.12.
For SPISQSQFIPLGEILCLAISAMESARKPVTQEALMEHLTTCFPGVPTPSQEILRHTLNTLVRERKIYPTPDGYFIVTP, the abundance fitness is -0.108 ± 0.051.
